Reference: article PMC2946813

Target: human factor Xa (human) (UniProt P00742)
Assay: prothrombinase activity titration

Sequence of UniProt P00742 (P00742 41-179, chain 1 of 2): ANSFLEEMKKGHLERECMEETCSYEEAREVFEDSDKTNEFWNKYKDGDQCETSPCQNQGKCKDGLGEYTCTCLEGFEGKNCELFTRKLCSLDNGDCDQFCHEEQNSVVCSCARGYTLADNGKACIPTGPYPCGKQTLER
Sequence of UniProt P00742 (P00742 235-488, chain 2 of 2): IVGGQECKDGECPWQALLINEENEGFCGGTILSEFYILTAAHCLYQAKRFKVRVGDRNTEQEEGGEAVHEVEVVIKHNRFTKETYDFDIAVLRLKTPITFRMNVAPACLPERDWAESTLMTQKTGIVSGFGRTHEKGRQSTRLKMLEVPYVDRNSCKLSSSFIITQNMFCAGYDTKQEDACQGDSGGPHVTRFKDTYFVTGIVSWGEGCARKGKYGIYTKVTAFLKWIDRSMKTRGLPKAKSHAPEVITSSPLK

Substance “plasma-derived human factor V activated with α-thrombin (from UniProt P12259 29-737) (natural protein)” has a Kd of 0.67 nM.
